The numbers were not newly measured in patent US5861377A, “Antistasin type serine protease inhibitors” (Novartis AG, priority 1994, dated 1999), which cites them from elsewhere.

The target in one data set is Factor Xa (Homo sapiens, UniProt P00742). Conditions: data from Dunwiddie et al.
The target of a further data set is T1, Trypsin (Bos taurus, UniProt P00760).
T1 sequence (P00760 24-246): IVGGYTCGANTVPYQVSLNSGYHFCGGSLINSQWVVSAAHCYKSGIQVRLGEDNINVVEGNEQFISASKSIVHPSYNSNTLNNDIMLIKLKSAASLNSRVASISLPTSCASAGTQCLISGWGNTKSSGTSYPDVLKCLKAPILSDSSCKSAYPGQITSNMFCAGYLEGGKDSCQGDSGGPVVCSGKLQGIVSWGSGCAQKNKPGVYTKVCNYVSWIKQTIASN
Conditions: bovine trypsin; data from Dunwiddie et al.

Chain of Factor Xa (P00742 235-488 limits assumed): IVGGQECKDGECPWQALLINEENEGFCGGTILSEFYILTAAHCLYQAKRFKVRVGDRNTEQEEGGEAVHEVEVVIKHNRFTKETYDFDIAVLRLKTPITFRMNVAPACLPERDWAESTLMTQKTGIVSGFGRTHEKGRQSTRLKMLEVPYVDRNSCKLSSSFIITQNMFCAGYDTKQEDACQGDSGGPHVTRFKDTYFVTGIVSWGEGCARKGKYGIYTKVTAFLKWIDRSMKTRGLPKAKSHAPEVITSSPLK
Chain of Factor Xa (P00742 41-179 partner limits assumed): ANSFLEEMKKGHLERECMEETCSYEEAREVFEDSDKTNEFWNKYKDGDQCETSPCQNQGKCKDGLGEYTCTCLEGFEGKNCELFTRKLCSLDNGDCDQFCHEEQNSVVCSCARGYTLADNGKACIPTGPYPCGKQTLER

B1: Antistasin: cysteine-rich serine proteinase inhibitor of 119 amino acids from the Mexican leech Haementeria officinalis; factor Xa inhibitor (protein)
chain: EGPFGPGCEEAGCPEGSACNIITDRCTCSGVRCRVHCPHGFQRSRYGCEFCKCRKEPMKATCDISECPEGMMCSRKTNKCDCKIDINCRKTCPNGLKRDKGCEYCECRFKRKLIPRLS
Broadly, the IC50 is the concentration that gives 50% inhibition. B1: the 50% inhibitory concentration (IC50) with Factor Xa was 1 nM; with Trypsin it was 5 nM.
